The text below walks through data of patent US20040033228A1.

For the assay, the target named is TNF (UniProt P01375). Kind of assay: cell-based or functional assay.
Sequence of UniProt P01375 (P01375 77-233 limits assumed): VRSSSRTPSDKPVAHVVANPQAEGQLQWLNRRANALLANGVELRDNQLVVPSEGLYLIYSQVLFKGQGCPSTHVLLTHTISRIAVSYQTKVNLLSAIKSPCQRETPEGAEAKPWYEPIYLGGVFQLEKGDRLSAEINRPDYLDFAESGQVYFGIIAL

D2E7 antibody showed an In vitro TNF neutralization test; with 0.1% polysorbate 80; fast thaw -80° C. in water bath of 95.8, an In vitro TNF neutralization test; with 0.1% polysorbate 80; no freeze/thaw of 112, an In vitro TNF neutralization test; with 0.1% polysorbate 80; slow thaw -30° C. in refrigerator of 96.2 and an In vitro TNF neutralization test; with 0.1% polysorbate 80; slow thaw -80° in refrigerator of 96.7. Besides, the In vitro TNF neutralization test; without 0.1% polysorbate 80; fast thaw -30° C. in water bath stood at 118, the In vitro TNF neutralization test; without 0.1% polysorbate 80; fast thaw -80° C. in water bath is 120, the In vitro TNF neutralization test; without 0.1% polysorbate 80; no freeze/thaw worked out at 118 and the In vitro TNF neutralization test; without 0.1% polysorbate 80; slow thaw -30° C. in refrigerator turned out to be 124. Besides, the In vitro TNF neutralization test; without 0.1% polysorbate 80; slow thaw -80° in refrigerator was 103.
